According to article PMC4132890:

Molecular target: ryanodine receptors (rat (endogenous in rat ventricular myocytes)) (UniProt B0LPN4)
Test: fluorescence wash-in and wash-out in permeabilized myocytes

Chain of UniProt B0LPN4 (B0LPN4 whole entry): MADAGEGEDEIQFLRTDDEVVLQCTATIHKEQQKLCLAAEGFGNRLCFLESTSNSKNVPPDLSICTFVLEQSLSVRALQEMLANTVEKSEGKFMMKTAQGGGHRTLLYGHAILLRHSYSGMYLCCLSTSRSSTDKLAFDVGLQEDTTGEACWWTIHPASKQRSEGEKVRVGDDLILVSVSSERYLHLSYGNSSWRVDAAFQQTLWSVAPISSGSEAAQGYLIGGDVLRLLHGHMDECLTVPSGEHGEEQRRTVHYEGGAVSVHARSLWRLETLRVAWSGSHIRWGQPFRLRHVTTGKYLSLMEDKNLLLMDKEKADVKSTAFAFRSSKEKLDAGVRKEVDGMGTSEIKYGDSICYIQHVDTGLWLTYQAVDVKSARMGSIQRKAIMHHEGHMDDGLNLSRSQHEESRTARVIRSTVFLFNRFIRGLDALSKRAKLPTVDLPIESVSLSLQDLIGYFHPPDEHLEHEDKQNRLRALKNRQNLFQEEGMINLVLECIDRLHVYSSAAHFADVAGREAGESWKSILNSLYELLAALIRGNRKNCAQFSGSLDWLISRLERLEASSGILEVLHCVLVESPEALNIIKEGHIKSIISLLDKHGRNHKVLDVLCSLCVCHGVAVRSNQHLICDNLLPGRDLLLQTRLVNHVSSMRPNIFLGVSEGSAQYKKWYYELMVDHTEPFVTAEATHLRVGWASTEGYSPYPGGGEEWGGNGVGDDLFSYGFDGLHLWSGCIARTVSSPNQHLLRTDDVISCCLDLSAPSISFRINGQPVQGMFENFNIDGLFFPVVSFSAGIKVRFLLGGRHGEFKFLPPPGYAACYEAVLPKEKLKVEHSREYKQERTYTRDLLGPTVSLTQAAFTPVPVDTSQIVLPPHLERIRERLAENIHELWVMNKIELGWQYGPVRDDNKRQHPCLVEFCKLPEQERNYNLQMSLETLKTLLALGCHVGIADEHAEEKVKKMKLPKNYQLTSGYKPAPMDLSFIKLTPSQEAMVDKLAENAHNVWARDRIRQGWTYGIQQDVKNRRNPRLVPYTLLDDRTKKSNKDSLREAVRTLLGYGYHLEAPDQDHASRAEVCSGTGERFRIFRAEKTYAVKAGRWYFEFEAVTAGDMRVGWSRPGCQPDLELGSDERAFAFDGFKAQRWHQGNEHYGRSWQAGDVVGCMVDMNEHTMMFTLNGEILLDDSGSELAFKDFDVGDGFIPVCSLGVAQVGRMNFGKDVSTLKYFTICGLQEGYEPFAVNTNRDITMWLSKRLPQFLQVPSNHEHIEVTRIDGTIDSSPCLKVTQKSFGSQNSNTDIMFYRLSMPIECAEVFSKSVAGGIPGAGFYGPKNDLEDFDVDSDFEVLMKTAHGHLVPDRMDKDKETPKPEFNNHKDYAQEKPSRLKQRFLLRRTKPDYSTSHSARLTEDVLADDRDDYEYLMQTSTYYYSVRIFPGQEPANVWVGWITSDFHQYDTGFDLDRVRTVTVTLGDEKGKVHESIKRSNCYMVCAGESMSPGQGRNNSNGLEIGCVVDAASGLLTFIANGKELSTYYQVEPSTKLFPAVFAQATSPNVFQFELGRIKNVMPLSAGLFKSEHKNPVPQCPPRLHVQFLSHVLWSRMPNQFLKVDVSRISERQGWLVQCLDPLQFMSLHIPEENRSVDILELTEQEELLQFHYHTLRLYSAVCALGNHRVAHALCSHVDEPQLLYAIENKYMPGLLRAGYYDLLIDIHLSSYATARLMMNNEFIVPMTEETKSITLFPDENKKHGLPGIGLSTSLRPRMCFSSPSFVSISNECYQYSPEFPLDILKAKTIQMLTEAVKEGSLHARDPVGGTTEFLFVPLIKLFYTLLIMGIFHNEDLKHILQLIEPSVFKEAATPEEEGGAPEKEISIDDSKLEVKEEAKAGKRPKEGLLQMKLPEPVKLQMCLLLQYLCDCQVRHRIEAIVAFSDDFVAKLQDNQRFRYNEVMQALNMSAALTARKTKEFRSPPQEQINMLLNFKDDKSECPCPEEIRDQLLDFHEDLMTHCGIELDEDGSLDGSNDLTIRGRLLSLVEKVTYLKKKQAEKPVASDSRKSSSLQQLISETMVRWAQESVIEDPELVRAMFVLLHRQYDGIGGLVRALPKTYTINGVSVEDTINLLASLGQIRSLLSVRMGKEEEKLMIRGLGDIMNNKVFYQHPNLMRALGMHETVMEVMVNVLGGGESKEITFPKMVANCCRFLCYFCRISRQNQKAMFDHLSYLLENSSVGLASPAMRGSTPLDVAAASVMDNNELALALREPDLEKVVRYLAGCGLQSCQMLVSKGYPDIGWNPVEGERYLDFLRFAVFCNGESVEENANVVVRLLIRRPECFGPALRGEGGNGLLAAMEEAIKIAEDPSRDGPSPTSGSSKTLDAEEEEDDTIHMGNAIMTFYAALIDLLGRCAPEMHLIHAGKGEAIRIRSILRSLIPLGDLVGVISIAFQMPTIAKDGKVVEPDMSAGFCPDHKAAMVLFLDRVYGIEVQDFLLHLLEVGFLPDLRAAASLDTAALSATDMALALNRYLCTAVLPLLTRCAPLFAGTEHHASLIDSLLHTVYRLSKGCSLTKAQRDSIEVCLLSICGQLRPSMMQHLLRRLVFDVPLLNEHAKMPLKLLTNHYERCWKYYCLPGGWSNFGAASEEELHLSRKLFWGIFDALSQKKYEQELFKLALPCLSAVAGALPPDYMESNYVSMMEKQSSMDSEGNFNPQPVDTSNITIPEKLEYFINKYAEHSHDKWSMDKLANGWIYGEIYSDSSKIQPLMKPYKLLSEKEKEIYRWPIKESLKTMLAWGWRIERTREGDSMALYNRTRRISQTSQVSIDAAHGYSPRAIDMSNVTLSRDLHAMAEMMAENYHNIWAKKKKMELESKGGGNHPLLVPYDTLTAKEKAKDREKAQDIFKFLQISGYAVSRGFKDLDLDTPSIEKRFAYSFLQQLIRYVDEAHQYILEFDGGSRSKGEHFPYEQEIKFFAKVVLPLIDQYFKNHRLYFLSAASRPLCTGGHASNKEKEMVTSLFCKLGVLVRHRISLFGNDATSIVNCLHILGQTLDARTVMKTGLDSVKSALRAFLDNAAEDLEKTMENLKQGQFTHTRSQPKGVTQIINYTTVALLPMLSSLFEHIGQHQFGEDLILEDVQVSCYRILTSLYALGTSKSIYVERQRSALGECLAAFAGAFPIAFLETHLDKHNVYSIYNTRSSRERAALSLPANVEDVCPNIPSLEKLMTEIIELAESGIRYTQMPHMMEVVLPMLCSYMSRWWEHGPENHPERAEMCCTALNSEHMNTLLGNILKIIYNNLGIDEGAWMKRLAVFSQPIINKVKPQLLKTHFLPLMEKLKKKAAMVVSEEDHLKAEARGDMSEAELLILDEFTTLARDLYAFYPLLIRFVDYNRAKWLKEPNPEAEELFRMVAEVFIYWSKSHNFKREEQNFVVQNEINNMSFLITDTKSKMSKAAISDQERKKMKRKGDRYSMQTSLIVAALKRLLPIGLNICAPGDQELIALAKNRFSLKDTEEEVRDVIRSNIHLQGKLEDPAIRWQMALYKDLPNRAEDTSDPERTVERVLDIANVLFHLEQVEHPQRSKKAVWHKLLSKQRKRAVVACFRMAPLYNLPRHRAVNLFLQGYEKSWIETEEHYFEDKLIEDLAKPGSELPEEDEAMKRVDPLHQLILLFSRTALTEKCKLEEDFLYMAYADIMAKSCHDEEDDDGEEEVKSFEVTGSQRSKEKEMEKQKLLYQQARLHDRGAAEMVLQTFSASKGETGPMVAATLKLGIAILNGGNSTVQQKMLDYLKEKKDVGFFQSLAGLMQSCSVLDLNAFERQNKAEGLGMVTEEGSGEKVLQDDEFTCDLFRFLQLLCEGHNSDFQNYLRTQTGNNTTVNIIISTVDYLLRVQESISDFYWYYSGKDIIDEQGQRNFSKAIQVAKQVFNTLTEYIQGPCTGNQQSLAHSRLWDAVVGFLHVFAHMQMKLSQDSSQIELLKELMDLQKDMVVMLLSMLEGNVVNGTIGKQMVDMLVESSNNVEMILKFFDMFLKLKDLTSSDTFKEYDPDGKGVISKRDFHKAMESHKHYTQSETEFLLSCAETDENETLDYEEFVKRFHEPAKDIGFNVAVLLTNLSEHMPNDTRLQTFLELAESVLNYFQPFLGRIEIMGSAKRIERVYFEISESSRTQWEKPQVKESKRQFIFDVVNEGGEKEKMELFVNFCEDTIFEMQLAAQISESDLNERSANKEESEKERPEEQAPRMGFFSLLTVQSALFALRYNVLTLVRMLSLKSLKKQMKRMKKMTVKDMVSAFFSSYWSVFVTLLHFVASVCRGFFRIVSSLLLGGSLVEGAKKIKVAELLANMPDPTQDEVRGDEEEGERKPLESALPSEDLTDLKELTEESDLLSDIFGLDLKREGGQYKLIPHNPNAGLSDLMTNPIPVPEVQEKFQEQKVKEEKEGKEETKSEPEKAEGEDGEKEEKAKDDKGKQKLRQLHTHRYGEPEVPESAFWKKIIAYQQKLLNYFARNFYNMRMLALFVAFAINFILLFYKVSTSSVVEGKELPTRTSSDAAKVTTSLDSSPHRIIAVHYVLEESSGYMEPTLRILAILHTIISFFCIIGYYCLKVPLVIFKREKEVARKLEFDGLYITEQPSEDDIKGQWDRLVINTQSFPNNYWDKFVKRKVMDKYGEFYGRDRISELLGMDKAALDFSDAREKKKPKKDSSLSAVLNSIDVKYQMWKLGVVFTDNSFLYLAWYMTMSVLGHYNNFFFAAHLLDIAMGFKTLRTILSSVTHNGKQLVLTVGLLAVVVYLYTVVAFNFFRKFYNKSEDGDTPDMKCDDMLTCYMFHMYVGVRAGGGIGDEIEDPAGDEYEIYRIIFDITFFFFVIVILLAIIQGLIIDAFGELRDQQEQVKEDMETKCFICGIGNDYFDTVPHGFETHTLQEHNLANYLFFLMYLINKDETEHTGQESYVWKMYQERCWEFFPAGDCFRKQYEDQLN

Substance	Kd
GCaMP2.2-FKBP12.6	15.5 nM
GCaMP2.2Low-FKBP12.6	43.8 nM
